The nature of this data set: Enzyme assay in vitro: formation of vanillin from isoeugenol by purified isoeugenol monooxygenase (HPLC). It counts as biochemical. The settings on record: 10 mM isoeugenol, pH 7.0, 30° C., 10 min. As to the method:
The two purified isoeugenol monooxygenases were assayed by measuring the formation of vanillin in an enzymatic measuring mixture with isoeugenol as the substrate. The reaction mixture contained 10 mM isoeugenol, 100 mM potassium phosphate buffer (pH 7.0), 10% (v/v) ethanol and an appropriate amount of enzyme, in a total volume of 1 ml. The reaction was started, by adding isoeugenol as ethanol solution, carried out at 30° C. for 10 min with reciprocal shaking (160 strokes min^−1) and stopped with 1 ml of methanol. After centrifugation at 21,500, the supernatant was analyzed by HPLC for the determination of isoeugenol, vanillin, and vanillyl alcohol. CfIEM enzyme treated in boiling water for 5 minutes was used as the negative control.
As expected, no vanillin was produced with the negative control (lower panel).

B1: CfIEM: isoeugenol monooxygenase from the fungus Colletotrichum fioriniae PJ7, 539 amino acids (SEQ ID NO: 2) (protein, listed as Colletotrichum fioriniae)
chain: MAPGRTDDEAAEVATSSKTHAISNYGLTTKWPEAYDLAGSNLPCRLEGEIGDLVVLGEIPKEIDGTFYRVMTDPFVPPHPNNVPLDGDGNISAFRIKDGRVDMKMRYVETERYKLERKANKALFGLYRNPFTHHPCVRAAVDSTANTNVVLWADHFLALKEGGLPYSVDPQTLETIKYDPFGQIKAKTFTAHPKIDPYTNELVVFGYEARGLASLDIVIYALDSNGVKHDEQWIKSPWCAPIHDCAITPNWIILALWPFEASVDRMKKGGHHWAWDYDLPATFIVAPRRSSTKLPPGWQPGESRVYSWKNCMLIHTGGAWESEDGQTLFMETTRVHDNGFPFFPTNEGVYPAPDPKSDYVRWTFDLSQPTNSKVPDPEIILDMPAEFPRLDERFLSKSYNYVWINVYIHEDQNGDGHTIVEGLNGLAMHNSKTKETKCFNAGAESFCQEPIFIPRSDDAPEGDGWVMTMVERRGANRNEIVVLDTKDFEKPIAVIQLPFHVKAQVHGNWVDQRRLKAWQKLARDAVPEPISGQGALEPL
Regarding B1, the activity toward isoeugenol entry is listed as “high activity” and the “conversion of added isoeugenol to vanillin (HPLC)” value is reported as “Almost all isoeugenol added to the reaction mixture was converted to vanillin”.
